The source of these data is patent US20220185900A1 (Regeneron, published 2022).

For experiment [1], the target named is T1, hRET.mmh (human, UniProt P07949 29-635, biotinylated in the ELISA of Example 4 (biot-hRET.mmh); not in the SPR of Example 3).
T1 construct: also called biot-hRET.mmh; soluble monomeric human RET
The experiment can be described thus: competition sandwich ELISA: 1 nM biot-hRET.mmh + antibody, plate-coated GDNF/GFRα1 co-complex. On the procedure:
The ability of anti-RET antibodies to block the binding of human RET to pre-complexed plate bound GDNF:GFRα1 was assessed using a competition sandwich ELISA.
Antibody-RET mixtures were incubated for 1 hour at RT and then transferred to microtiter plates previously coated with the hGDNF/hGFRα1 co-complex. Binding was allowed to proceed for 1 hr at RT followed by extensive washing. […] Plates were read at 450 nm and data analysis used a sigmoidal dose-response model within Prism™ software.
The absorbance values of the wells containing the highest concentration for each antibody were used to determine the blocking percent at maximum concentration antibody tested.
In general terms: ELISA stands for enzyme-linked immunosorbent assay.

The target in experiment [2] is T2, hRET.mFc (human).
T2 construct: also called dimeric human RET
The experiment in a line: SPR Biacore T200, mAb capture, 25 C. On the procedure:
(§1) Binding affinities and kinetic constants of human anti-RET antibodies were determined by surface plasmon resonance (Biacore T200) at […] (Tables 2-3). […] Binding equilibrium dissociation constants (KD) and dissociative half-lives (t_{1/2}) were calculated from the kinetic rate constants as: KD [M]=kd/kₐ; and t_{1/2}(min)=(ln2/(60*kd). Calculations were performed using BiacoreT200 evaluation software v1.0.
(SPR reads the build-up and loss of mass on a sensor chip optically.)

Experiment [3] addresses T3, Macaca fascicularis (mf) RET.mmh (Macaca fascicularis).
T3 construct: also called monkey RET
T3 chain: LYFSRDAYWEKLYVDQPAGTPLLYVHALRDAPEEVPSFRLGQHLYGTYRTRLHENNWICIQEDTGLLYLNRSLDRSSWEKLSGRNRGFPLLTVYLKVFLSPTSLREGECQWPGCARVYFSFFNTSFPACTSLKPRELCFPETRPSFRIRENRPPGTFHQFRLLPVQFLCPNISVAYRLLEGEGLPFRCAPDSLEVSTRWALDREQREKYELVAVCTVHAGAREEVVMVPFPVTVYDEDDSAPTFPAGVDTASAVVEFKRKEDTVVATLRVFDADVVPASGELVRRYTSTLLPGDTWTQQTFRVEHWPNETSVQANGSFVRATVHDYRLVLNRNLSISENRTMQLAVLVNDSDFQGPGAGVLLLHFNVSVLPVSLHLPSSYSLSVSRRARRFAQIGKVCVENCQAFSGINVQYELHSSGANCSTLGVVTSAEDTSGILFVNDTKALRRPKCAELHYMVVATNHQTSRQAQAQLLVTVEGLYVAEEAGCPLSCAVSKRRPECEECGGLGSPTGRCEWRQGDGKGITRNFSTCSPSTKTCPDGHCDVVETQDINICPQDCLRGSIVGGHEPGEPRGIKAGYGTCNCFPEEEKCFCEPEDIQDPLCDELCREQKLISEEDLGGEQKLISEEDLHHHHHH
The experiment can be described thus: SPR Biacore T200, mAb capture, 25 C. On the procedure: as §1

Experiment [4] deals with T1, hRET.mmh. The experiment in a line: SPR Biacore T200, mAb capture, 25 C. On the procedure:
as §1

The target in experiment [5] is T2, hRET.mFc. The experiment can be described thus: SPR Biacore T200, mAb capture, 37 C. On the procedure:
as §1

In experiment [6] the target is T3, Macaca fascicularis (mf) RET.mmh. The experiment in a line: SPR Biacore T200, mAb capture, 37 C. On the procedure: as §1
For experiment [7], the target named is T1, hRET.mmh. The experiment in a line: SPR Biacore T200, mAb capture, 37 C. On the procedure: as §1

B1: H4H8084P (antibody, human IgG4, V domains shown)
VH: QVQLVESGGGVVQPGRSLRLSCEASGFTFRNYGMHWVRQAPGKGLDWVSTIYYDGSDEYYSDSVKGRFTISRDNSKNTLYLQMNSLRAEDTAVYYCARDPPSFRYFDYWGQGTLVTVSS
VL: DIQMTQSPSTLSASVGDRVTITCRASQSIRSWLTWYQQKPGKAPKVLIYKASTLERGVPSRFSGSGSGTEFTLTISSLQPEDFATYYCHQYSSYSYTFGQGTKLEIK
notes: human IgG4 Fc (H4H prefix)
Turning to B1, the “% Max Blocking” value with hRET.mmh [1] is 96%. Also, the IC50 with hRET.mmh [1] was less than 0.25 nM. For the same molecule, the Kd in the experiment with hRET.mFc [2] turned out to be 0.284 nM; in experiment [3], 0.565 nM; in the experiment with hRET.mmh [4], 0.518 nM; with hRET.mFc [5], 0.809 nM; in experiment [6], 1.76 nM; in the experiment with hRET.mmh [7], 1.56 nM. Moreover, the koff with hRET.mFc [2] is 0.000204 s⁻¹; in experiment [3] it was 0.000393 s⁻¹; with hRET.mmh [4], 0.000375 s⁻¹; in the experiment with hRET.mFc [5], 0.00085 s⁻¹; in experiment [6], 0.00178 s⁻¹; with hRET.mmh [7], 0.00165 s⁻¹. In addition, the kon was 720000 M⁻¹ s⁻¹ with hRET.mFc [2]; 695000 M⁻¹ s⁻¹ in experiment [3]; 723000 M⁻¹ s⁻¹ in the experiment with hRET.mmh [4]; 1.05e+06 M⁻¹ s⁻¹ with hRET.mFc [5]; 1.01e+06 M⁻¹ s⁻¹ in experiment [6]; 1.06e+06 M⁻¹ s⁻¹ in the experiment with hRET.mmh [7]. Besides, the t½ with hRET.mFc [2] was 57 min; in experiment [3], 29 min; in the experiment with hRET.mmh [4], 31 min; with hRET.mFc [5], 14 min; in experiment [6], 6 min; with hRET.mmh [7], 7 min.

B2: H4H8080P (antibody, human IgG4, V domains shown)
VH: EVQLVESGGGLVQSGGSLRLSCVASGFTFSTYAMTWVRQAPGRGLEWVSAISGSGASTYYADSLKGRFTVSRDNSKNTLYLQMNSLRAEDTAVYYCSKDHRNYDSDYDMDVWGQGTTVTVSS
VL: DIQMTQSPSSLSASVGDRVTITCRASQGIRNYLGWYQQKPGKAPKRLIYTASSLQSGVPSRFRGSGSGTEFTLTISSLQPEDFATYYCLQHNSYPYTFGQGTKLEIK
notes: human IgG4 Fc (H4H prefix)
Consider B2, for which, in the experiment with hRET.mmh [1], the “% Max Blocking” value came to 82% and the concentration for half-maximal inhibition (IC50) is less than 0.25 nM. For the same molecule, in the experiment with hRET.mFc [2], the Kd turned out to be 1.32 nM, the koff came out at 0.000242 s⁻¹, the kon came out at 183000 M⁻¹ s⁻¹ and the t½ amounted to 48 min. Also, the binding result in experiment [3] is on record as “no binding”. Moreover, in the experiment with hRET.mmh [4], the Kd was 2.38 nM, the koff was found to be 0.000502 s⁻¹, the kon amounted to 211000 M⁻¹ s⁻¹ and the t½ turned out to be 23 min. For the same molecule, in the experiment with hRET.mFc [5], binding was characterised by a dissociation constant (Kd) of 3.98 nM, the dissociation rate constant (koff) came out at 0.00107 s⁻¹, the kon stood at 269000 M⁻¹ s⁻¹ and the t½ was found to be 11 min. In the experiment with hRET.mmh [7], this molecule had a Kd of 9.35 nM, a koff of 0.00267 s⁻¹, a kon of 285000 M⁻¹ s⁻¹ and a t½ of 4 min.

B3: H2M7086N (antibody, mouse IgG2, V domains shown)
VH: QVQLVESGGGVVQPGRSLRLSCVVSGFTFSNYGMHWVRQGPGRGLEWLALIWYDGSDKYYAESVRGRFTISRDNSKNTVYLQMNSLRAEDTAMYYCTRDRIFDYWGQGTLVTVSS
VL: AIQMTQSPSSLSASVGDRVTITCRASQDIRNDLGWYQHNPGKAPNLLIYAASTLQIGVPSRFRGSGSGTDFTLTISSLQPEDFATYYCLQDFDYPLSFGGGTKVEIR
notes: human variable domains with mouse IgG2 Fc (H2M prefix)
Turning to B3, in the experiment with hRET.mmh [1], the “% Max Blocking” value was 96% and the IC50 is 0.33 nM.

B4: H4H7086N (antibody, human IgG4, V domains shown)
VH: QVQLVESGGGVVQPGRSLRLSCVVSGFTFSNYGMHWVRQGPGRGLEWLALIWYDGSDKYYAESVRGRFTISRDNSKNTVYLQMNSLRAEDTAMYYCTRDRIFDYWGQGTLVTVSS
VL: AIQMTQSPSSLSASVGDRVTITCRASQDIRNDLGWYQHNPGKAPNLLIYAASTLQIGVPSRFRGSGSGTDFTLTISSLQPEDFATYYCLQDFDYPLSFGGGTKVEIR
notes: human IgG4 Fc form of 7086N; also called H4H7086P
For B4, in the experiment with hRET.mmh [1], the “% Max Blocking” value is 97% and the IC50 came out at 0.39 nM.

B5: H4H8083P (antibody, human IgG4, V domains shown)
VH: QVQLVESGGGVVQPGRSLRLSCAASGFTFNNYVMHWVRQAPGKGLEWVALIWYDGSNKYYADSVKGRFTISRDNSKNALNLQMNSLRAEDTAVYFCARVSIAARNYYYGGLDVWGQGTTVTVSS
VL: EIVLTQSPGTLSLSPGERATLSCRASQSVSSTYLAWYQQKPGQAPRLLIYGASSRATGIPDRFSGSGSGTDFTLTISRLEPEDFAVYYCQHYGGSPLTFGGGTKVEIK
notes: human IgG4 Fc (H4H prefix)
Regarding B5, the “% Max Blocking” value in the experiment with hRET.mmh [1] is 95%. The IC50 in the experiment with hRET.mmh [1] is less than 0.25 nM. Also, the Kd amounted to 1.14 nM with hRET.mFc [2]; 3.44 nM in experiment [3]; 2.52 nM in the experiment with hRET.mmh [4]; 3.02 nM in the experiment with hRET.mFc [5]; 14.2 nM in experiment [6]; 9.04 nM with hRET.mmh [7]. Besides, the koff was found to be 0.000224 s⁻¹ with hRET.mFc [2]; 0.000711 s⁻¹ in experiment [3]; 0.000484 s⁻¹ with hRET.mmh [4]; 0.0008 s⁻¹ in the experiment with hRET.mFc [5]; 0.004 s⁻¹ in experiment [6]; 0.00255 s⁻¹ in the experiment with hRET.mmh [7]. Moreover, the kon amounted to 197000 M⁻¹ s⁻¹ in the experiment with hRET.mFc [2]; 207000 M⁻¹ s⁻¹ in experiment [3]; 192000 M⁻¹ s⁻¹ with hRET.mmh [4]; 264000 M⁻¹ s⁻¹ with hRET.mFc [5]; 283000 M⁻¹ s⁻¹ in experiment [6]; 282000 M⁻¹ s⁻¹ with hRET.mmh [7]. The t½ with hRET.mFc [2] is 52 min; in experiment [3], 16 min; in the experiment with hRET.mmh [4] it was 24 min; in the experiment with hRET.mFc [5] it was 14 min; in experiment [6], 3 min; in the experiment with hRET.mmh [7], 5 min.

B6: H4H8066P (antibody, human IgG4, V domains shown)
VH: EVQLVESGGGLVQPGGSLRLSCEASGFTFSRYAMTWVRQAPGKGLEWVSGISGSGGSTFYVDSLQGRFTLSRDNSKHTLFLQMNSLRAEDTAIYYCAKENTYGHFDYWGQGTLVTVSS
VL: DIQLTQSPSFLSASVGDRVTITCWASQDISTYLAWYQQKPGKAPQVLIYAASSLQYGVPSRFSGSGSGTEFTLTITSLQPEDFATYYCQQLIGYPYIFGQGTKLEIK
notes: human IgG4 Fc (H4H prefix)
On to B6, for which the “% Max Blocking” value in the experiment with hRET.mmh [1] was found to be 57%. Moreover, in the experiment with hRET.mmh [1], the half-maximal inhibitory concentration (IC50) is 0.41 nM. Moreover, the Kd with hRET.mFc [2] amounted to 0.58 nM; in experiment [3], 13.7 nM; with hRET.mmh [4] it was 2.02 nM; with hRET.mFc [5], 1.28 nM; in experiment [6] it was 39.4 nM; in the experiment with hRET.mmh [7], 5.43 nM. Further, the koff in the experiment with hRET.mFc [2] is 0.00012 s⁻¹; in experiment [3], 0.000882 s⁻¹; in the experiment with hRET.mmh [4], 0.000257 s⁻¹; with hRET.mFc [5] it was 0.000335 s⁻¹; in experiment [6] it was 0.00323 s⁻¹; with hRET.mmh [7], 0.00106 s⁻¹. Also, the kon with hRET.mFc [2] turned out to be 207000 M⁻¹ s⁻¹; in experiment [3] it was 64300 M⁻¹ s⁻¹; with hRET.mmh [4], 127000 M⁻¹ s⁻¹; in the experiment with hRET.mFc [5] it was 262000 M⁻¹ s⁻¹; in experiment [6], 81900 M⁻¹ s⁻¹; with hRET.mmh [7], 195000 M⁻¹ s⁻¹. In addition, the t½ is 96 min in the experiment with hRET.mFc [2]; 13 min in experiment [3]; 45 min in the experiment with hRET.mmh [4]; 34 min with hRET.mFc [5]; 4 min in experiment [6]; 11 min with hRET.mmh [7].

Broadly, the IC50 is the concentration that gives 50% inhibition. The Kd is the constant that tells how readily two partners part at equilibrium. A high value points to a looser complex. Broadly, the koff is the rate constant with which the complex falls apart. A low value points to slow dissociation. What is called kon is the second-order rate constant of association. For orientation: t½ means the time in which the quantity being followed falls by half. High values mean slow loss, low ones fast loss.
